Kd data for one molecule are collected here from paper PMC10138348 (2023).

The target in test [1] is T1, F4, TNFα-derived peptide with a myristoylated lysine and fluorescein-labelled cysteine in the +2 position (UniProt P01375, myristoyl residue on the lysine side chain; 5-acetamidofluorescein coupled to a cysteine residue at position +2). Kind of test: FP; 0 uM BSA, no NAD+.
The target of test [2] is T1, F4, TNFα-derived peptide with a …. Kind of test: FP; 3 uM BSA, no NAD+.
Test [3] has the same target. The experiment in a line: FP; 0.3 uM BSA, no NAD+.

B1: SIRT2 (enzyme)
chain: MAEPDPSHPLETQAGKVQEAQDSDSDSEGGAAGGEADMDFLRNLFSQTLSLGSQKERLLDELTLEGVARYMQSERCRRVICLVGAGISTSAGIPDFRSPSTGLYDNLEKYHLPYPEAIFEISYFKKHPEPFFALAKELYPGQFKPTICHYFMRLLKDKGLLLRCYTQNIDTLERIAGLEQEDLVEAHGTFYTSHCVSASCRHEYPLSWMKEKIFSEVTPKCEDCQSLVKPDIVFFGESLPARFFSCMQSDFLKVDLLLVMGTSLQVQPFASLISKAPLSTPRLLINKEKAGQSDPFLGMIMGLGGGMDFDSKKAYRDVAWLGECDQGCLALAELLGWKKELEDLVRREHASIDAQSGAGVPNPSTSASPKKSPPPAKDEARTTEREKPQ
Regarding B1, the dissociation constant (Kd) (commonly the equilibrium constant for the complex coming apart) in test [1] stood at 12.3 nM; in test [2] it was 7 nM; in test [3] it was 9.4 nM.
